Data published in the supplement of paper PMC9170038.

Test system: MS2 coat protein
Assay: apparent KD of MS2 coat protein, switch ON state; designed switch direction (-1 OFF switch, 1 ON switch): 1; higher = weaker reporter binding
Details: FMN input: 0 or 200 uM; Eterna round: R93 (includes R88 designs)
Summary of the method: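 Designed RNA switches were transcribed on-chip from Illumina sequencing clusters. SNAP-549-labelled MS2 coat protein was titrated onto them in twofold steps from 0.7 or 1.5 nM to 3 µM in 100 mM Tris-HCl pH 7.5, 80 mM KCl, 4 mM MgCl2, either without or with constant ligand. Apparent KD reflects the per-design median of normalised cluster binding-curve fits.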

| Sequence | apparent KD of MS2 coat protein [nM] |
| --- | --- |
| ACAAACAAAAGAGAGGAUAUCCAAAAGAAAACAUGAGGAUCACCCAUGUGAAAGAAAAUAAAAUGGGAGAAGGCUCAGAACAACA [Topaz 28] | 29.2 |
| AGUCAACAUGAGGAUCACCCAUGUCUGAGAGCAUGAGGAUAUCUAGAUGGGCAGCAUGAUAGAGAAGGCAUGCGCC [Biongear] | 173 |
| AGGAGACAUGAGGAUCACCCAUGUGAGAAGAGGCGAGGAUAUCGAAAGAAAGAAGAGAAACGAGAAGGCGCGAGCC [salish99-SS1-032] | 28.1 |
| AAAAGACAUGAGGAUCACCCAUGUAAAAACGUAGGAGGAUAUGUAUGGAAACCAGACUGUACAGAAGGCCUCUGUC [SS1 - 72] | 22.2 |
| AAUAUACAUGAGGAUCACCCAUGUUUUAAUAGUUGAGGAUAUACGGGUGAAAAUAGCAUAGUAGAAGGCGAGUGUA [SameState1 Malc#12] | 146 |
| GGAUAACAUGAGGAUCACCCAUGUACAUGGGUACAAGGAUAUGUAAAAUAAAACAAACAAACAGAAGGUGUAAAAA [I'm in a state] | 228 |
| ACUAUACAUGAGGAUCACCCAUGUCAGGUGGGACUAGGAUAUCAAAAGCCAGAGUAAGAAUGAGAAGGAGUAGAAA [JR_SS001_Sub304] | 66.4 |
| AAAAAACAUGAGGAUCACCCAUGUCGAAAGACGUGAGGAUAUGUACAGACUUCGGUCUGUACAGAAGGCAUGUAAA [SS1 - 1054] | 146 |
| GGGAGACAUGAGGAUCACCCAUGUGAAAACGUGUGAGGAUAUCUAUGGAAACCAUACUGUAGAGAAGGCACUUGUC [Servius Sulpicius Similis] | 45.4 |
| AAUAAACAUGAGGAUCACCCAUGUCUUUUACAUCAAGGAUAUGGGAUCGGAAAUCCGACACCAGAAGGUGAGUAGA [Userra] | 157 |
| GGUCGACAUGAGGAUCACCCAUGUAAGCCAAGGCAAGGAUAUGGGUAUAGGGUGCUAGGAUUAGAAGGUGCCAAAA [Soredige] | 87.1 |
| GUUAGGAAGAGAGAGGAUAUCCAAAGGAAAACAUGAGGAUCACCCAUGUAAAAGGUAGGAAAUUGGGAGAAGGCUCAAGAGAGAG [salish99-ss2-079] | 31.9 |
| AAGAAACAUGAGGAUCACCCAUGUGAGAUAAACACAGGAUAUGCGAAAAGAAACAAAGAAGCAGAAGGGUGAAGAA [Mat - Same State 1 - Tesla mod - 55] | 34.9 |
| AGAAAACAUGAGGAUCACCCAUGUAGGAAUAUGGGAGGAUAUACAGAGACGAAAGUCAGAGUAGAAGGCCUAAGAA [salish99-SS1-088] | 24 |
| GCAGGGCUACACUAGGAUAUGGGUGUCUAAACAUGAGGAUCACCCAUGUGAUGGCAAAACAAAGCUCAGAAGGAGUCGUAGCCCA [Bebirare] | 14 |
| AUAUGAGCUAAUGAGGAUAUCCAUAAUAAGACAUGAGGAUCACCCAUGUAAACAAAACAAUAAUGGGAGAAGGCAUUAGCUCAAU [SS 2 M49] | 45.7 |
| CAAACAACAACACAGGAUAUACAUAUAAUAACAUGAGGAUCACCCAUGUAAGGCAAAAAUAAGCUGUAGAAGGGUGAACACACAA [Default title] | 10.6 |
| AACAGACAUGAGGAUCACCCAUGUAGAAUUAUGGGAGGAUAUACAAAGACGAGAGUCAGAGUAGAAGGCCUAGGAG [salish99-ss1-162] | 22.1 |
| AAUCCAAAUAGUCAGGAUAUCAAAAAUAAGACAUGAGGAUCACCCAUGUACUUAGUAAAAGUAAAUGAGAAGGGACAGGGUGAAA [JR_SS002_Sub403] | 21.4 |
| AGGAAGGAGAGAGAGGAUAUCCAAAGGAAAACAUGAGGAUCACCCAUGUAGAAGGUAGGAAAUUGGGAGAAGGCUCAAGAGACAG [salish99-ss2-126] | 16.8 |
| AACAAUCUAUCUGAGGAUAUGUGUCGAAAGACAUGAGGAUCACCCAUGUCAAAACAUGGAAAGAUACAGAAGGCAGAUAGAUUGA [SS2: 1158] | 8.33 |
| UAAAAACAUGAGGAUCACCCAUGUAGAAAUAUGGGAGGAUAUACGAAGACGAAAGUCAAAGUAGAAGGCCUAAAAU [Mat - Same State 1 - Eli mod - D104] | 21.8 |

| Sequence | apparent KD of MS2 coat protein [nM] |
| --- | --- |
| AAGAAACAUGAGGAUCACCCAUGUACCCAAAAGCGAGGAUAUGGGAAAGAAAGAAAGAAACCAGAAGGCGCAUGAA [Darius II] | 20 |
| AACAAUCUAUCUGAGGAUAUCAUGUCAAAGACAUGAGGAUCACCCAUGUACCAGGAAACUGGUUAUGAGAAGGCAGAUAGAUUGA [SS2: 1115] | 37.3 |
| UACAGACAUGAGGAUCACCCAUGUAGAAUUAUGGGAGGAUAUACAAAGACGAGAGUCAGAGUAGAAGGCCUAGGAA [salish99-ss1-164] | 24 |
| CGAAGACAUGAGGAUCACCCAUGUGGGAAUAUGGGAGGAUAUACAAAGACGAGAGUCAGAGUAGAAGGCCUAGGAG [salish99-ss1-106] | 40.2 |
| AACAAUCUAUCUGAGGAUAUGUGUCAAAAGACAUGAGGAUCACCCAUGUAAAAACAUGAAAAAACACAGAAGGCAGAUAGAUUGA [SS2: 1148] | 41.8 |
| ACAAAGCUACACUAGGAUAUGGGUGUCUAAACAUGAGGAUCACCCAUGUGAUGGCAAAACAAAGCUCAGAAGGAGUCGUAGCCCA [Bientevece] | 15 |
| AGAGAUAACAGAGAGGAUAUCCAAUAGAAAACAUGAGGAUCACCCAUGUGAAAGAUAAUAAAAUGGGAGAAGGCUCACAAUAAGA [Topaz 42] | 15.8 |
| AAAAAACAUGAGGAUCACCCAUGUGAGAACAUGGGAGGAUAUACAAGGACGAGAGUCAAAGUAGAAGGCCUAAAAA [Garnet 65] | 155 |
| AAGAAACAUGAGGAUCACCCAUGUAAACUCGAGAGAGGAUAUCGUACAUGGAAGAUUCAACGAGAAGGCUCUAGAG [Same State 1.1a (Pariah 3, G boost at 31, GC 76/28)] | 23.8 |
| UUUAAUUAUACGAAGGAUAUCGAUAAUAAGACAUGAGGAUCACCCAUGUAAUAUUUUUCCAUAUUCGAGAAGGUCGCGGGUGAAC [JR_SS002_Sub601] | 25 |
| AAAAUAAAAAGGUAGGAUAUGGGUAAAACUACAUGAGGAUCACCCAUGUAAUAAAAAGAAAAAAACCAGAAGGACCAAAAUAAAA [72%, More Wateronthemoon, 8] | 13.2 |
| GAAAAACAUGAGGAUCACCCAUGUAGAAAUAUGGGAGGAUAUACAAAGACGUAAGUCAAAGUAGAAGGCCUAAAAG [Mat - Same State 1 - Eli mod - D8] | 19.1 |
| GAAAAACAUGAGGAUCACCCAUGUGUAAACACGGGAGGAUAUACAAAGACGUAAGUCAAAGUAGAAGGCCUAAAAG [Garnet 39] | 26.7 |
| AUAAAACAUGAGGAUCACCCAUGUCAACAAAGUCGAGGAUAUGGGCAAAUAAAAUAAGAACCAGAAGGCGAAUAAU [Teenbexe] | 32.2 |
| AAAAAACAUGAGGAUCACCCAUGUAAAAAAAACACAGGAUAUCCCUUUAAAAAAAAAAAAGGAGAAGGGUGAAAAA [Nob's Hobby 4 - Jieux - Same State 1] | 20.4 |
| AAAAAACAUGAGGAUCACCCAUGUGCAAAAUUCGCAGGAUAUUCCUUUUUUAAAUGGGAGGGAGAAGGGUGUAAAA [Nob's Hobby 19 - Jieux - Same State 1] | 21.9 |
| AAACAACAUGAGGAUCACCCAUGUCAAACAAAUCGAGGAUAUGGGCAGGAUUCUUCCUAACUAGAAGGCGAAAACA [Esmatidi] | 164 |
| AAAAACACGGUGCAGGAUAUAUUAAUAGUCACAUGAGGAUCACCCAUGUUCAUUUAUAUGAACGAGUAGAAGGGCGGUGAAAAAA [Mat - Same state - Malcolm Mod - D112] | 172 |
| AAAAAACAUGAGGAUCACCCAUGUCGAAAGACGUGAGGAUAUGUACAGACUUCGGUCUGUACAGAAGGCACGUAAA [SS1 - 1040] | 14.3 |
| AGAAGGUGGGUCGAGGAUAUCAGGCACGCCACAUGAGGAUCACCCAUGUUUUUGGCACCGCCCAAUGAGAAGGUGAACACCUUCA [Cesobe] | 9.34 |
| AAUAAUUAUAUGGAGGAUAUCCGUAAUAAGACAUGAGGAUCACCCAUGUAAUAAGGGUAAAUAAAGGAGAAGGCCAAGGGUGAAA [JR_SS002_Sub003] | 98.4 |
| AAAAAACAUGAGGAUCACCCAUGUCUUCGGACAUGAGGAUAUGUACAGACUUCGGUCUGUACAGAAGGCAUGUAAA [SS1 - 1017] | 323 |
